Positions count from the first letter of the chain named.
Tests used:
Conditions in all cases: EMSA: 20 mM Tris pH 8, 60 mM KCl, 1 mM EDTA, 12% glycerol, 2 mM DTT, 1 ug poly(dI-dC), 12.5 ng (legend: 12.5 nM) Cy5-DNA, +/-5 mM Ca2+, 1% agarose 0.5x TAE …
[1] = biological target: T1, pMarR G106A G106A (cyanophage P-SSP7) (UniProt Q58N47); assay: EMSA
T1 sequence: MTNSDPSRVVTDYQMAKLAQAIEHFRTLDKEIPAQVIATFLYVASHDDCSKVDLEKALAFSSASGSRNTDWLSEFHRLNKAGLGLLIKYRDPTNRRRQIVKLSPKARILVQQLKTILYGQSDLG

[2] = biological target: T2, pMarR R67A R67A (cyanophage P-SSP7) (UniProt Q58N47); assay: EMSA
T2 sequence: T1 sequence with R67A, A106G

[3] = biological target: T3, pMarR (Gp0.7) WT (cyanophage P-SSP7) (UniProt Q58N47); assay: EMSA
T3 sequence: T1 sequence with A106G

[4] = biological target: T4, pMarR S66A S66A (cyanophage P-SSP7) (UniProt Q58N47); assay: EMSA
T4 sequence: T1 sequence with S66A, A106G

[5] = biological target: T3, pMarR (Gp0.7) WT (cyanophage P-SSP7); assay: DNase I footprinting

Row | Sequence | binding [1] | binding [2] | Kd [3] [nM] | binding [4] | binding [5]
1 | CAGCATCAATACCTGGTAGGACATTTTCAACAGTTCCTAAAAAAATATCCCCGATTTGATATTGACCTTGTGCGACGATTAATTCATCAACTTGATCATCTGTGAGTAGTGCTGCAATACGCGCCTGCTCAGCTATTACAATTTGCTGAGAC (double strand) [rne Pi+] | binds | no binding | 320 | binds | –
2 | CAGCATCAATACCTGGTAGGACATTTTCAACAGTTCCTAAAAAAATATCCCCGATTTGATATTGACCTTGTGCGACGATTAATTCATCAACTTGATCATCTGTGAGTAGTGCTGCAATACGCGCCTGCTCAGCTATTACAATTTGCTGAGACATAAAAATTTTAAAGTATGTTTTGAATTTTTGAAAATCGATAAAAAGTAAATAATTACATATTTAATTTTTCGCTAGCAATTTCTTGAAAGC (double strand) [rne footprint fragment (Pi+ and part of Pi)] | – | – | – | – | binds
